Measured values published in patent US20110300138A1 (published 2011).

How the values were obtained:
[1] = target: human TSH receptor (full length, wild type) expressed in CHO cells (human) (UniProt P16473); assay: cell-based or functional assay
[2] = target: human TSH receptor (full length, wild type) expressed in CHO cells (human) (UniProt P16473); assay: cell-based or functional assay; remark: listed apart in the source
[3] = target: human TSHR (wild type, full length) expressed in CHO cells (human) (UniProt P16473); assay: cell-based or functional assay
[4] = target: human TSH receptor (TSHR), wild type, expressed in CHO cells (human) (UniProt P16473); assay: cell-based or functional assay
TSHR260-AP (human) [5] = assay: TSHR260-AP bridge ELISA (full length TSHR on wells, TSHR260-AP in solution); IgG 0.05 µg/mL diluted in assay buffer
TSHR260-AP (human) [6] = assay: TSHR260-AP bridge ELISA (full length TSHR on wells, TSHR260-AP in solution); IgG 0.05 µg/mL diluted in HBD serum
TSHR260-AP (human) [7] = assay: TSHR260-AP bridge ELISA (full length TSHR on wells, TSHR260-AP in solution); IgG 0.5 µg/mL diluted in assay buffer
[8] = target: TSHR260-alkaline phosphatase (TSHR260-AP) (human) (UniProt P05187); assay: TSHR260-AP bridge ELISA, full length TSHR on wells; 250 µg/mL, diluted in assay buffer
[9] = target: TSHR260-alkaline phosphatase (TSHR260-AP) (human) (UniProt P05187); assay: TSHR260-AP bridge ELISA, full length TSHR on wells; 0.1 µg/mL, diluted in assay buffer
[10] = target: TSHR260-alkaline phosphatase (TSHR260-AP) (human) (UniProt P05187); assay: TSHR260-AP bridge ELISA, full length TSHR on wells; 0.5 µg/mL, diluted in HBD
TSHR260-AP (human) [11] = assay: TSHR260-AP bridge ELISA (full length TSHR on wells, TSHR260-AP in solution); IgG 10 µg/mL diluted in HBD serum
[12] = target: TSHR260-alkaline phosphatase (TSHR260-AP) (human) (UniProt P05187); assay: TSHR260-AP bridge ELISA, full length TSHR on wells; 0.5 µg/mL, diluted in assay buffer
[13] = target: TSHR260-alkaline phosphatase (TSHR260-AP) (human) (UniProt P05187); assay: TSHR260-AP bridge ELISA, full length TSHR on wells; 0.05 µg/mL, diluted in assay buffer
[14] = target: TSHR260-alkaline phosphatase (TSHR260-AP) (human) (UniProt P05187); assay: TSHR260-AP bridge ELISA, full length TSHR on wells; 1 µg/mL, diluted in assay buffer
[15] = target: TSHR260-alkaline phosphatase (TSHR260-AP) (human) (UniProt P05187); assay: TSHR260-AP bridge ELISA, full length TSHR on wells; 0.01 µg/mL, diluted in HBD
[16] = target: TSHR260-alkaline phosphatase (TSHR260-AP) (human) (UniProt P05187); assay: TSHR260-AP bridge ELISA, full length TSHR on wells; 1 µg/mL, diluted in HBD
[17] = target: TSHR260-alkaline phosphatase (TSHR260-AP) (human) (UniProt P05187); assay: TSHR260-AP bridge ELISA, full length TSHR on wells; 0.05 µg/mL, diluted in HBD
TSHR260-AP (human) [18] = assay: TSHR260-AP bridge ELISA (full length TSHR on wells, TSHR260-AP in solution); IgG 250 µg/mL diluted in HBD serum
TSHR260-AP (human) [19] = assay: TSHR260-AP bridge ELISA (full length TSHR on wells, TSHR260-AP in solution); IgG 0.5 µg/mL diluted in HBD serum
TSHR260-AP (human) [20] = assay: TSHR260-AP bridge ELISA (full length TSHR on wells, TSHR260-AP in solution); IgG 0.1 µg/mL diluted in assay buffer
[21] = target: TSHR260-alkaline phosphatase (TSHR260-AP) (human) (UniProt P05187); assay: TSHR260-AP bridge ELISA, full length TSHR on wells; 10 µg/mL, diluted in HBD
[22] = target: TSHR260-alkaline phosphatase (TSHR260-AP) (human) (UniProt P05187); assay: TSHR260-AP bridge ELISA, full length TSHR on wells; 10 µg/mL, diluted in assay buffer
TSHR260-AP (human) [23] = assay: TSHR260-AP bridge ELISA (full length TSHR on wells, TSHR260-AP in solution); IgG 1 µg/mL diluted in HBD serum
[24] = target: TSHR260-alkaline phosphatase (TSHR260-AP) (human) (UniProt P05187); assay: TSHR260-AP bridge ELISA, full length TSHR on wells; 100 µg/mL, diluted in HBD

9D33 IgG (antibody)
% Inhibition; T10 serum + 100 µg/mL 9D33 IgG [1]: 95.4%
% Inhibition; T11 serum + 100 µg/mL 9D33 IgG [1]: 87.1%
% Inhibition; T12 serum + 100 µg/mL 9D33 IgG [1]: 91.7%
Cyclic AMP concentration; 100 µg/mL 9D33 IgG alone [1]: 1.9 pmol/mL
Cyclic AMP concentration; HBD + 100 µg/mL 9D33 IgG [1]: 3.2 pmol/mL
Cyclic AMP concentration; T10 serum + 100 µg/mL 9D33 IgG [1]: 2.6 pmol/mL
Cyclic AMP concentration; T11 serum + 100 µg/mL 9D33 IgG [1]: 5.3 pmol/mL
Cyclic AMP concentration; T12 serum + 100 µg/mL 9D33 IgG [1]: 3.6 pmol/mL
% Inhibition; T4 serum + 100 µg/mL 9D33 [2]: 94.8%
% Inhibition; T5 serum + 100 µg/mL 9D33 [2]: 95.6%
% Inhibition; T6 serum + 100 µg/mL 9D33 [2]: 94%
Cyclic AMP concentration; 100 µg/mL 9D33 alone [2]: 2 pmol/mL
Cyclic AMP concentration; HBD + 100 µg/mL 9D33 [2]: 3.9 pmol/mL
Cyclic AMP concentration; T4 serum + 100 µg/mL 9D33 [2]: 4.1 pmol/mL
Cyclic AMP concentration; T5 serum + 100 µg/mL 9D33 [2]: 2.9 pmol/mL
Cyclic AMP concentration; T6 serum + 100 µg/mL 9D33 [2]: 5 pmol/mL
% Inhibition of T8 serum stimulation; 0.01 µg/mL 9D33 IgG [3]: 12%
% Inhibition of T8 serum stimulation; 0.1 µg/mL 9D33 IgG [3]: 56%
% Inhibition of T8 serum stimulation; 1 µg/mL 9D33 IgG [3]: 91%
% Inhibition of T8 serum stimulation; 10 µg/mL 9D33 IgG [3]: 93%
% Inhibition of T8 serum stimulation; 100 µg/mL 9D33 IgG [3]: 93%
Cyclic AMP concentration; 0.01 µg/mL 9D33 IgG + T8 [3]: 45.8 pmol/mL
Cyclic AMP concentration; 0.1 µg/mL 9D33 IgG + T8 [3]: 22.9 pmol/mL
Cyclic AMP concentration; 1 µg/mL 9D33 IgG + T8 [3]: 4.7 pmol/mL
Cyclic AMP concentration; 10 µg/mL 9D33 IgG + T8 [3]: 3.7 pmol/mL
Cyclic AMP concentration; 100 µg/mL 9D33 IgG + T8 [3]: 3.6 pmol/mL
% Inhibition of constitutive activity; 0.001 µg/mL 9D33 IgG [4]: 0%
% Inhibition of constitutive activity; 0.01 µg/mL 9D33 IgG [4]: 0%
% Inhibition of constitutive activity; 0.1 µg/mL 9D33 IgG [4]: 0%
% Inhibition of constitutive activity; 0.3 µg/mL 9D33 IgG [4]: 0%
% Inhibition of constitutive activity; 1 µg/mL 9D33 IgG [4]: 0%
% Inhibition of constitutive activity; 3 µg/mL 9D33 IgG [4]: 0%
% Inhibition of constitutive activity; 10 µg/mL 9D33 IgG [4]: 0%
% Inhibition of constitutive activity; 100 µg/mL 9D33 IgG [4]: 0%
Cyclic AMP concentration (constitutive activity); 0.001 µg/mL 9D33 IgG [4]: 18.8 pmol/mL
Cyclic AMP concentration (constitutive activity); 0.01 µg/mL 9D33 IgG [4]: 20.3 pmol/mL
Cyclic AMP concentration (constitutive activity); 0.1 µg/mL 9D33 IgG [4]: 23.9 pmol/mL
Cyclic AMP concentration (constitutive activity); 0.3 µg/mL 9D33 IgG [4]: 26.4 pmol/mL
Cyclic AMP concentration (constitutive activity); 1 µg/mL 9D33 IgG [4]: 35.5 pmol/mL
Cyclic AMP concentration (constitutive activity); 3 µg/mL 9D33 IgG [4]: 32.3 pmol/mL
Cyclic AMP concentration (constitutive activity); 10 µg/mL 9D33 IgG [4]: 34.3 pmol/mL
Cyclic AMP concentration (constitutive activity); 100 µg/mL 9D33 IgG [4]: 38 pmol/mL

M22 IgG (antibody)
Mean absorbance at 405 nm (absorbance at 405 nm) (TSHR260-AP (human) [5]): 0.484
Mean absorbance at 405 nm (absorbance at 405 nm) (TSHR260-AP (human) [6]): 0.204
Mean absorbance at 405 nm (absorbance at 405 nm) (TSHR260-AP (human) [7]): 0.776
Mean absorbance at 405 nm (absorbance at 405 nm) [8]: 1.01
Mean absorbance at 405 nm (absorbance at 405 nm) [9]: 0.653
Mean absorbance at 405 nm (absorbance at 405 nm) [10]: 0.657
Mean absorbance at 405 nm (absorbance at 405 nm) (TSHR260-AP (human) [11]): 0.796
Mean absorbance at 405 nm (absorbance at 405 nm) [12]: 0.776
Mean absorbance at 405 nm (absorbance at 405 nm) [13]: 0.484
Mean absorbance at 405 nm (absorbance at 405 nm) [14]: 0.821
Mean absorbance at 405 nm (absorbance at 405 nm) [15]: 0.03
Mean absorbance at 405 nm (absorbance at 405 nm) [16]: 0.726
Mean absorbance at 405 nm (absorbance at 405 nm) [17]: 0.204
Mean absorbance at 405 nm (absorbance at 405 nm) (TSHR260-AP (human) [18]): 0.833
Mean absorbance at 405 nm (absorbance at 405 nm) (TSHR260-AP (human) [19]): 0.657
Mean absorbance at 405 nm (absorbance at 405 nm) (TSHR260-AP (human) [20]): 0.653
Mean absorbance at 405 nm (absorbance at 405 nm) [21]: 0.796
Mean absorbance at 405 nm (absorbance at 405 nm) [22]: 0.872
Mean absorbance at 405 nm (absorbance at 405 nm) (TSHR260-AP (human) [23]): 0.726
Mean absorbance at 405 nm (absorbance at 405 nm) [24]: 0.851
